Data taken from the supplement of paper PMC6755084.

B1: minF1; a variant is named by its letters at N, in order (parent)
chain: GAGACCGCAACTGAAAAGTTGTTNNNNAANNNNGGNTNNATTTCTGCACGTAGAAGCAAAAGGC

Variants of: B1
Assay: fraction ligated after 30 min (ligated reads / total reads); higher = more ligase activity
Settings: with F1*subA RNA substrate (template-directed ligation), 42 °C
Method: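 Chip-synthesised pool of minF1 ligase ribozyme variants (single and double substitutions, single to quadruple deletions, bulge and P2 designed variants) was transcribed with T7 and reacted as a pool with excess substrate F1*subA for 30 min at 42 C in 50 mM EPPS pH 8.5, 25 mM MgCl2. Ligated and unligated RNAs were separated by PAGE, barcoded by RT and deep sequenced; fraction ligated = ligated reads / total reads, relative activity = FL / FL of wild-type minF1 (0.76); sequencing FL correlated with PAGE (R2 = 0.98). Sequences are the DNA template of the ribozyme.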

Row | Variant | fraction ligated
1 | ACAGATGGGTT G34A G35T T37G | 0.000596
2 | TCGAGGATGTG T23A | 0.00538
3 | ACGAGGTGTGA A29T | 0.00316
4 | AGAAGATGTGA A28T A29G | 0.00743
5 | TCGATGTGTGA T23A | 0.00234
6 | AGAAGGATGTG A29T | 0.00505
7 | TCAGATGAGTT G34T T37G | 0.0017
8 | TCGATGGATGA | 0.00257
9 | TCAGATGGGTA T23A | 0.00335
10 | TCGATGTGTGA | 0.0025
11 | TCAGGGTGTGA A29T | 0.00272
12 | ACAGATATTGA | 0.0012
13 | TCAGATGTGTA T23A | 0.00304
14 | TCAGATGGGTT G34T T37G | 0.00104
15 | TCAGATGGGTT T23A G34A T37G A40G | 0
16 | TCGAGGATGTG T23A A29T | 0.0128
17 | TCAGTGGAGTT G34T T37G | 0.00084
18 | TCAGATAGTGA | 0.00299
19 | TGAAGGATGTG T23A A29T | 0.00766
20 | TCAGATGGGTG T23A G34A | 0.00659
21 | TCAGATGGGTG T23A G34T | 0.00324
22 | AGAAGGATGTG T23A A29T | 0.00517
23 | ACAGTGGAGTA | 0.00375
24 | ACAGTGGAGTG | 0.00883

Row | Variant | fraction ligated
25 | TCAGTGATGTG T23A | 0.00385
26 | TCAGATTGTGA | 0.00132
27 | AGAAGATGTGA T23A A29T | 0.00161
28 | AGAAGATGTGA T23A A29G | 0.00362
29 | TCAGATGAGTT T23A G34T T37G A40G | 0.00258
30 | ACAGATTGTGA | 0.00539
31 | TCAGTGGATGA | 0.00185
32 | ACAGATGGGTT G34A G35T T37G A40G | 0.000584
33 | TCAGATGGGTT G34A T37G | 0.00135
34 | TCAGTGGTGTG T23A | 0.00413
35 | TCGAGATGTGA T23A A29G | 0.00586
36 | TCGAGATGTGA T23A A29T | 0.00198
37 | ACAGGGATGTA A29T | 0.00654
38 | TCGATGATTGA T23A | 0.00304
39 | TCAGGGATGTG T23A A29T | 0.0102
40 | TCAGGGTGTGA T23A A29T | 0.00472
41 | ACAGGGAGTGA A29T | 0.00347
42 | ACAGGGTGTGA | 0.00435
43 | ACGATGTGTGA | 0.00232
44 | TCAGATGGGTT T23A G34T T37G | 0.00101
45 | TCAGTGGAGTA T23A | 0.00382
46 | TCAGATGGGTA T23A G34A | 0.0017
47 | TCAGATGGGTA T23A G34T | 0.00312
48 | ACAGATGGGTT G34A T37G A40G | 0.000615

Row | Variant | fraction ligated
49 | TGAAGGATGTA T23A A29T | 0.00285
50 | ACAGGATGTGA A29T | 0.00171
51 | ACAGGATGTGA A29G | 0.00108
52 | TCGATGATGTG | 0.00893
53 | TCGATGATGTA | 0.00391
54 | TCAGGATGTGA T23A A29G | 0.00232
55 | TCAGGATGTGA T23A A29T | 0.00222
56 | AGAAGGATGTA T23C A29T | 0.00442
57 | ACAGTGGAGTG G34T | 0.0352
58 | TCAGATGAGTT G34T T37G A40G | 0.00127
59 | TCGAGGATGTA T23A A29T | 0.00462
60 | CGAAGATGTGA A29T | 0.00363
61 | CGAAGATGTGA A29G | 0.00313
62 | ACGAGATGTGA A29G | 0.00268
63 | ACGAGATGTGA A29T | 0.00193
64 | TCAGGGAGTGA A29T | 0.00242
65 | TCGAGGATGTA A29T | 0.00472
66 | TCAGTGGTTGA | 0.00261
67 | TCGAGGTGTGA T23A | 0.00322
68 | ACAGTGGTTGA | 0.00127
69 | AGAAGATGTGA A29G | 0.00203
70 | AGAAGATGTGA A29T | 0.00448
71 | ACAGTGTGTGA | 0.00188
72 | TCAGGGATGTG A29T | 0.00266

Row | Variant | fraction ligated
73 | ACAGATGAGTT G34T T37G A40G | 0.00147
74 | ACGAGGAGTGA | 0.000641
75 | TCAGTGAGTGA | 0.00311
76 | TCGAGGATGTA T23A | 0.0024
77 | TCGAGGTGTGA | 0.00212
78 | ACGAGGATTGA A29T | 0.00766
79 | ACGATGATGTG | 0.00517
80 | ACGATGATGTA | 0.00144
81 | TCAGGGAGTGA T23A A29T | 0.000582
82 | TCGAGGTGTGA A29T | 0.00308
83 | TCGATGGAGTA G34T | 0.143
84 | TCAGGATGTGA A28T A29G | 0.00322
85 | ACGATGGAGTA G34T | 0.0869
86 | TGAAGATGTGA T23A A29G | 0.00128
87 | TGAAGATGTGA T23A A29T | 0.00202
88 | TCAGGGATGTA T23A | 0.00201
89 | TCAGTGGAGTA G34T | 0.00892
90 | TCAGGATGTGA A29G | 0.00144
91 | TCAGGATGTGA A29T | 0.00155
92 | ACAGATGGGTT G34A T37G | 0.00125
93 | ACAGTGATTGA | 0.00326
94 | TCAGAGTGTGA T23A | 0.00281
95 | ACAGATGAGTT G34T T37G | 0.000925
96 | TCAGGGATGTA A29T | 0.000605

Row | Variant | fraction ligated
97 | CGAAGATGTGA T23A A28T A29G | 0.00787
98 | TCAGATTGTGA T23A | 0.00184
99 | TCAGATGAGTA G34T | 0.00143
100 | ACGAGGATTGA | 0.00256
101 | TCGATGGAGTA T23A | 0.00851
102 | TCGATGGAGTG T23A G34T | 0.25
103 | ACGATGGATGA | 0.0034
104 | TCGAGGAGTGA T23A | 0.00431
105 | TGAAGGATGTG A29T | 0.00863
106 | TCAGGATGTGA | 0.00269
107 | TCAGAGGAGTT T23A G34T T37G | 0.000421
108 | TCAGGGATGTG T23A | 0.00389
109 | CGAAGATGTGA T23A A29G | 0.00107
110 | CGAAGATGTGA T23A A29T | 0.00299
111 | TCAGTGGTGTA | 0.00201
112 | TCAGTGGTGTG | 0.00278
113 | TCAGAGGTTGA T23A | 0.000867
114 | TCAGATGGGTT T23A G34A G35T T37G | 0.00134
115 | TCGATGGAGTT T23A G34T T37G | 0.001
116 | TCAGTGATTGA T23A | 0.00266
117 | ACGAGATGTGA A28T A29G | 0.00619
118 | TCGAGGTGTGA T23A A29T | 0.00169
119 | TCAGGGAGTGA T23A | 0.0029
120 | TCGAGATGTGA T23A | 0.00396

Row | Variant | fraction ligated
121 | TCAGATGAGTG T23A G34T | 0.00649
122 | TCAGATGGGTG T23A | 0.00293
123 | TCGATGGATGA T23A | 0.00236
124 | CGAAGATGTGA A28T A29G | 0.00384
125 | ACAGATGAGTG G34T | 0.00398
126 | AGAAGGATGTA T23A A29T | 0.00442
127 | TCAGAGGAGTT T23A G34T T37G A40G | 0.000303
128 | ACAGATGGTGA | 0.00375
129 | TCAGATGGGTT G34A G35T T37G A40G | 0.000594
130 | TCAGTATGTGA | 0.00458
131 | TCAGTGATTGA | 0.00169
132 | TCAGATGTGTG T23A | 0.00627
133 | TCGATGGTTGA T23A | 0.00216
134 | ACAGGATGTGA A28T A29G | 0.0031
135 | TCGATGGAGTT G34T T37G A40G | 0.000433
136 | ACAGTGGTGTG | 0.00543
137 | ACAGTGGTGTA | 0.000648
138 | TCAGAGGTGTA T23A | 0.00248
139 | TCAGGGAGTGA | 0.00359
140 | CGAAGGATGTA T23A A29T | 0.0054
141 | TCAGGGATGTA T23A A29T | 0.00445
142 | AGAAGATGTGA T23A A28T A29G | 0.00449
143 | TCAGGATGTGA T23A A28T A29G | 0.00354
144 | TCAGGGATTGA | 0.00138

Row | Variant | fraction ligated
145 | ACGATGGAGTT G34T T37G | 0.00155
146 | TCAGTGGAGTT G34T T37G A40G | 0.00151
147 | TCGATGGAGTT G34T T37G | 0.00201
148 | ACGATGGAGTG G34T | 0.156
149 | ACAGGGATTGA | 0.00266
150 | TCAGTGGAGTT T23A G34T T37G | 0.00183
151 | TCAGTGGAGTA | 0.00247
152 | TCAGTGGAGTG | 0.00572
153 | ACAGATGTTGA | 0.00338
154 | TCAGATGGGTA | 0.000871
155 | TCAGATGGGTG | 0.005
156 | ACGAGGAGTGA A29T | 0.00454
157 | TCAGGATGTGA T23A | 0.00221
158 | ACAGGATGTGA | 0.00342
159 | ACAGATATGTA | 0.00255
160 | ACAGATATGTG | 0.00478
161 | TCGATGGAGTT T23A G34T T37G A40G | 0.00165
162 | TGAAGATGTGA T23A A28T A29G | 0.00603
163 | TCAGTGGGTGA | 0.00233
164 | AGAAGGATGTG T23C A29T | 0.00819
165 | TGAAGATGTGA A29T | 0.00283
166 | TGAAGATGTGA A29G | 0.00286
167 | AGAAGATGTGA T23C A28T A29G | 0.00411
